Measurements taken from PMC9515155.

What was measured:
IgE_(TRAP) (human) = IgE_(TRAP) (human) (UniProt P12319); experiment: SPR; ProteOn XPR36, GLC chip; 500 RU of IgE_(TRAP) immobilised in acetate buffer pH 4.0 (850 RU of omalizumab at pH 5.5); human IgE flowed over; PBS with 0.005% Tween-20, 30 μL/min
[1] = target: human IgE (Calbiochem) (human); experiment: SPR; settings: Fc fusion
Sequence of human IgE (Calbiochem) (human) (P01854 whole entry, the tested form may be a part): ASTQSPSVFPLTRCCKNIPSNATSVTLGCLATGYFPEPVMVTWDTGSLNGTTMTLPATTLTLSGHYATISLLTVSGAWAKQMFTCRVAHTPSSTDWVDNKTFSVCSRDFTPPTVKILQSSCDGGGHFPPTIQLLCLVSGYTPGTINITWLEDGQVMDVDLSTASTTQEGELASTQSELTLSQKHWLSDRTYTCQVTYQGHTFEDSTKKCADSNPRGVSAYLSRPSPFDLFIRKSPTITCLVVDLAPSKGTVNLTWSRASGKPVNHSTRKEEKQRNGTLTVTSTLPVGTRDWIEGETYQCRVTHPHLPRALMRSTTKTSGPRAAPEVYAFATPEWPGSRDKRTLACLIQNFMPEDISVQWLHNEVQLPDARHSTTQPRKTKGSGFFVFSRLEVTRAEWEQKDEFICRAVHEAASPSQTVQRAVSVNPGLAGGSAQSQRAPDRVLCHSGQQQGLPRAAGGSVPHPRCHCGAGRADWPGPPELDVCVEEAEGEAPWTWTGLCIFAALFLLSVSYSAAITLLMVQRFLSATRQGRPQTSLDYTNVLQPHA

Sequence of human IgE (Calbiochem) (natural protein) (P01854 whole entry): as the sequence (P01854 whole entry, the tested form may be a part) above

| fold higher binding affinity than omalizumab (IgE_(TRAP) (human)) | fold lower association rate constant (Ka) than omalizumab (IgE_(TRAP) (human)) | fold lower dissociation rate constant (Kd) than omalizumab (IgE_(TRAP) (human)) | Kd [1] | koff [1] | Substance |
| --- | --- | --- | --- | --- | --- |
| 69 fold | 1.5 fold | 105 fold |  |  | human IgE (Calbiochem) (natural protein) |
|  |  |  | 0.215 nM | 5.69e-05 s⁻¹ | IgE_(TRAP) (from UniProt P12319 25-205; P01880 133-170; P01861 121-327) |
